Test results as given in article PMC11722011, “NMR Studies on the Structure of Yeast Sis1 and the Dynamics of Its Interaction with Ssa1-EEVD” (Molecules, 2024).
One block for each binder: values may come before it. Ends that are not written are not given here.

How the values were obtained:
Conditions in all cases: both partners purified
[1] = target: T1, full-length Sis1 (residues 1–352), Sis1_(1–352) (S. cerevisiae, UniProt P25294 1-352); test: NMR titration; 1H-15N TROSY of 0.3 mM 15N-Sis1(1-352) free and with GPTIEEVD (1:4 protein:peptide), CSP; 25 mM Tris-HCl pH 7.5, 200 mM NaCl, 10% D2O, 303 K
T1 construct: Sis1, class B J-domain protein of S. cerevisiae, residues 1-352 (352 residues long); J-domain 1-72, GF 73-121, GM 122-178, CTDI 179-257, CTDII 258-335, dimerization domain 336-352; 15N- or 2H/15N-labelled; also called 15N-Sis1_(1–352); 2H-15N-Sis1_(1–352)
T1 sequence (looked up): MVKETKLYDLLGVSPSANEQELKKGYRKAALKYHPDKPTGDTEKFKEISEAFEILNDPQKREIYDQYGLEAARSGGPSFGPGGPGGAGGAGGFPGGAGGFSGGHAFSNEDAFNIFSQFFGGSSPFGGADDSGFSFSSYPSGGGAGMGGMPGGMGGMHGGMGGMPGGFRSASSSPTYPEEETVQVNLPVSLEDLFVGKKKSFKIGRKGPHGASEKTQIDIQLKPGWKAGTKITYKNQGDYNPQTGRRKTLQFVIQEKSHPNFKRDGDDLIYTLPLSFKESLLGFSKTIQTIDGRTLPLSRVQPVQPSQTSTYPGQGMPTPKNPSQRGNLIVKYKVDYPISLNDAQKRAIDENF

[2] = target: T1, full-length Sis1 (residues 1–352), …; test: NMR titration; paramagnetic relaxation enhancement: Sis1(1-352) with TEMPO-labeled EEVD peptide, TROSY spectra, paramagnetic against diamagnetic (reduced with ascorbate) intensity ratio
[3] = target: T2, Sis1_(1–81), J-domain of Sis1 (residues 1–81) (S. cerevisiae, UniProt P25294 1-81); test: NMR titration; paramagnetic relaxation enhancement: 15N-Sis1(1-81) titrated with TEMPO-labeled …, 1H-15N HSQC at 900 MHz; diamagnetic sample after reduction with 3 mM ascorbic acid; intensity ratio Ipara/Idia
T2 construct: Sis1, class B J-domain protein of S. cerevisiae, residues 1-81: J-domain (1-72) and part of the GF region (73-81); 15N-labelled for HSQC, 13C/15N-labelled for the structure; also called 15N-Sis1_(1–81)
T2 sequence (looked up): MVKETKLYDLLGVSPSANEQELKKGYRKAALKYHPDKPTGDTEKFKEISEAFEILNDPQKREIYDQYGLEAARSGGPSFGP

binding result [1]: binds
B1: GPTIEEVD peptide (EEVD peptide, C-terminal motif of HSP70/Ssa1) (peptide)
peptide: GPTIEEVD
notes: also called Ssa1-EEVD; source: synthetic peptide (GenOne Biotechnologies, Rio de Janeiro)

binding result [2]: binds | binding result [3]: binds
B2: TEMPO-labeled CGPTIEEVD peptide (TEMPO-EEVD) (peptide)
peptide: C(4‑maleimide‑TEMPO)GPTIEEVD
notes: N-terminal cysteine that carries the spin label; also called spin-labeled EEVD; paramagnetic EEVD peptide; source: synthetic peptide (GenOne Biotechnologies), labelled with 4-maleimide-TEMPO, HPLC (C18) purified
